What was measured:
Test in all cases: ELISA, antibody coated, OX40-ECD.His mutant supernatant; relative to silent alanine substitutions;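 also: captured OX40 mutant protein detected with HRP-labelled anti-His antibody, absorbance read-out, scaled to the mean signal of control mutants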
[1] = target: T1, human OX40-ECD.His T85A (human, UniProt P43489 29-214)
T1 construct: extracellular domain; not shown: C-terminal His-tag
T1 sequence (looked up): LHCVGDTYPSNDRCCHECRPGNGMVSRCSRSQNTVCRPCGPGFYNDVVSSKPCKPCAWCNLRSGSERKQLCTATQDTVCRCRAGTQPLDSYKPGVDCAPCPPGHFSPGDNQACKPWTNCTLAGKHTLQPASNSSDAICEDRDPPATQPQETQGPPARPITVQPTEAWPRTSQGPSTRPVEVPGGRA

[2] = target: T2, human OX40-ECD.His Q139A (human, UniProt P43489 29-214)
T2 construct: extracellular domain; not shown: C-terminal His-tag
T2 sequence (looked up): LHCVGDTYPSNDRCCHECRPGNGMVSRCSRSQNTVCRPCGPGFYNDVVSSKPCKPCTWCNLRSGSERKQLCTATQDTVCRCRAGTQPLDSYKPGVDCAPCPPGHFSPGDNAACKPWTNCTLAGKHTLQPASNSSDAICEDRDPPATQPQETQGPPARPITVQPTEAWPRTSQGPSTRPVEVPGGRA

[3] = target: T3, human OX40-ECD.His K152A (human, UniProt P43489 29-214)
T3 construct: extracellular domain; not shown: C-terminal His-tag
T3 sequence (looked up): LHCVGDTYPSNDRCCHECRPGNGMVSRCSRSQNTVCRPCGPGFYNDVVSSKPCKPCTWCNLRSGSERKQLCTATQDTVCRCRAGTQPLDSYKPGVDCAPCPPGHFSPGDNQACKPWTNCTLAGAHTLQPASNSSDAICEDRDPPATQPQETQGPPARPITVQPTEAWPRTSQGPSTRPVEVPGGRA

[4] = target: T4, human OX40-ECD.His R58A (human, UniProt P43489 29-214)
T4 construct: extracellular domain; not shown: C-terminal His-tag
T4 sequence (looked up): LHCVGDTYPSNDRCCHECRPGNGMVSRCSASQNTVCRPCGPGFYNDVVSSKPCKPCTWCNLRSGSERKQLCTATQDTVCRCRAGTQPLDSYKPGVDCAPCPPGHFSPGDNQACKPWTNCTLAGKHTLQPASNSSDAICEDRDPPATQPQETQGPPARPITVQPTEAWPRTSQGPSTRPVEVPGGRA

[5] = target: T5, human OX40-ECD.His P130A (human, UniProt P43489 29-214)
T5 construct: extracellular domain; not shown: C-terminal His-tag
T5 sequence (looked up): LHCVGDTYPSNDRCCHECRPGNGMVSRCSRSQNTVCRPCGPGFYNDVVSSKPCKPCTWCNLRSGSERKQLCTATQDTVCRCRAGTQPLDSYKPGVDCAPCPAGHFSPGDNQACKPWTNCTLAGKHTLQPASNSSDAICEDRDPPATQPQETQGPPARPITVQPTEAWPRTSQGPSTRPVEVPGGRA

[6] = target: T6, human OX40-ECD.His A140G (human, UniProt P43489 29-214)
T6 construct: extracellular domain; not shown: C-terminal His-tag
T6 sequence (looked up): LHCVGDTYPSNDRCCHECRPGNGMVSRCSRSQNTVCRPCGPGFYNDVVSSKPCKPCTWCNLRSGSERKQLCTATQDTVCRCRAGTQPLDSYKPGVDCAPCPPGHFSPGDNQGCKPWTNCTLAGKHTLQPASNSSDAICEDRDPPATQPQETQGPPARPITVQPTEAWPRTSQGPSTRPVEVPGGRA

[7] = target: T7, human OX40-ECD.His A111G (human, UniProt P43489 29-214)
T7 construct: extracellular domain; not shown: C-terminal His-tag
T7 sequence (looked up): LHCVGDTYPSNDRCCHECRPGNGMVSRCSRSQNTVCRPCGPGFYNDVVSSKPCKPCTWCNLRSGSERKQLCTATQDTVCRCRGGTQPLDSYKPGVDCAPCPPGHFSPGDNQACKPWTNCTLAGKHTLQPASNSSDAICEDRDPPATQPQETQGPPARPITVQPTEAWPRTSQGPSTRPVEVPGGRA

[8] = target: T8, human OX40-ECD.His R41A (human, UniProt P43489 29-214)
T8 construct: extracellular domain; not shown: C-terminal His-tag
T8 sequence (looked up): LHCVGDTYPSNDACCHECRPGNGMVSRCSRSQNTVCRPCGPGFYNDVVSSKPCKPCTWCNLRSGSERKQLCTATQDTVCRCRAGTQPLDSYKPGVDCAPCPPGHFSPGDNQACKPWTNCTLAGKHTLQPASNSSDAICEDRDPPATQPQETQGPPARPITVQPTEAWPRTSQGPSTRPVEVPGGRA

[9] = target: T9, human OX40-ECD.His R65A (human, UniProt P43489 29-214)
T9 construct: extracellular domain; not shown: C-terminal His-tag
T9 sequence (looked up): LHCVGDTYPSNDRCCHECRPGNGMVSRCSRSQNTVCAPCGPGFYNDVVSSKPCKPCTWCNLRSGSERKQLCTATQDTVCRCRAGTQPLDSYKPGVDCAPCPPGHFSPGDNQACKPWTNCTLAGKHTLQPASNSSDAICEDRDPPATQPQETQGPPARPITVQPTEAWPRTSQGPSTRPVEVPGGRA

[10] = target: T10, human OX40-ECD.His D74A (human, UniProt P43489 29-214)
T10 construct: extracellular domain; not shown: C-terminal His-tag
T10 sequence (looked up): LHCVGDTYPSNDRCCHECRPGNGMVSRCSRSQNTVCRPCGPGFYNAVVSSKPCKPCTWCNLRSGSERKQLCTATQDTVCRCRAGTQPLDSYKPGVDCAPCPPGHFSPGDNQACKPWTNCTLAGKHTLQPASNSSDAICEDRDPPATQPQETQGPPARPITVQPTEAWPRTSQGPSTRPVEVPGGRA

Fold Change [1]: 0.808 | Fold Change [2]: 0.999 | Fold Change [3]: 0.81 | Fold Change [4]: 1 | Fold Change [5]: 1.01 | Fold Change [6]: 0.969 | Fold Change [7]: 0.853 | Fold Change [8]: 0.958 | Fold Change [9]: 0.996 | Fold Change [10]: 0.796
B1: 1.134.9-u1-IgG1L (antibody, V domains shown)
VH: QVQLQESGPGLVKPSGTLSLTCAVSGGSISSYNWWSWVRQPPGKGLEWIGEIYHGGNTNYNPSLKSRVTMSVDNSKNQFSLKLSSVTAADTAVYYCARAPGDWGGSPYFDFWGQGTLVTVSS
VL: SSELTQDPAVSVALGQTVRITCQGDNLRTYYASWYQQKPGQAPILLIYGRNKRPSGIPDRFSGSSSGNTASLTITGAQAEDEAAYYCNSRDSSGNPVVFGGGTKLTVL
notes: fully human IgG1, lambda

— patent US20210171647A1 (WUXI BIOLOGICS SHANGHAI, published 2021)
